Assay [1] concerns the target T1, mFc tagged human LAG3 ECD recombinant protein (human, UniProt P18627 23-450).
T1 construct: extracellular domain; purchased from Biointron; not shown: mouse IgG Fc (mFc) tag
T1 sequence (looked up): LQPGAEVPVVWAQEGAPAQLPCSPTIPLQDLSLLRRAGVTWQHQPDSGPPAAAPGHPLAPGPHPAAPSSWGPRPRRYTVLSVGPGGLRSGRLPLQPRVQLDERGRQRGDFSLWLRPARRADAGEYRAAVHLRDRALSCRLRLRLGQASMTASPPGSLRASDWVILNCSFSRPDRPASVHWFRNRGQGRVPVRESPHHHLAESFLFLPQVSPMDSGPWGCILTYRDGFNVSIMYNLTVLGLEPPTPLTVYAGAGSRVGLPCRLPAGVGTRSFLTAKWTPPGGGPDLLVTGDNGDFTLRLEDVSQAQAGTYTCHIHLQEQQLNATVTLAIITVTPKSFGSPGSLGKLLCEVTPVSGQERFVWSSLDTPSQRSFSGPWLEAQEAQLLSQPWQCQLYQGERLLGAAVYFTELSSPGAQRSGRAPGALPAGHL
Nature of the assay: competitive FACS: mFc tagged human LAG3 ECD binding to MHC II on Raji cells. Here is the method:
(§1) Activity of the purified chimeric antibodies to block LAG3 and MHC II interaction was determined by competitive FACS assay. […] After washing, dye labeled anti-mouse Fc 2nd antibody (Sigma) was added and incubated at 37° C. for 1 hour. Fluorescence intensity was detected.

For assay [2], the target named is T2, human LAG3 (form used in Octet, Biacore and HDX-MS not given) (human, UniProt P18627 23-450, limits assumed).
T2 sequence (looked up): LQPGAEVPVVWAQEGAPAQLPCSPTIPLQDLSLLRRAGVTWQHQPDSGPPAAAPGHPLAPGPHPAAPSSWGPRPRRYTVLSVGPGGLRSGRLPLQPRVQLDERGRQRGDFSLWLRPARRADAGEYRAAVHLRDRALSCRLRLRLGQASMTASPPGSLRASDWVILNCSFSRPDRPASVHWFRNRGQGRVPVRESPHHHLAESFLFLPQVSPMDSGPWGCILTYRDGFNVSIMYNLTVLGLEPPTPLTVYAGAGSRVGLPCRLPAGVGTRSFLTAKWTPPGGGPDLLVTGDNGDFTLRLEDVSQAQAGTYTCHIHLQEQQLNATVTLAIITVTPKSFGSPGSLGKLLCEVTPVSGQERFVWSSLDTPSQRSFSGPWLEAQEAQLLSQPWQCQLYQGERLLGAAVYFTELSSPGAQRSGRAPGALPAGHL
Nature of the assay: BLI (Octet), 1:1 fit. The protocol:
(§2) The association and dissociation curves were fit with 1:1 binding model, and the Ka/Kd/KD values for each antibody were calculated.
as §2

For assay [3], the target named is T2, human LAG3 (form used in Octet, Biacore …). Nature of the assay: BLI (Octet). On the technique in general: In BLI a coated tip is dipped into the sample, and binding shifts an interference pattern.
The target of assay [4] is T1, mFc tagged human LAG3 ECD recombinant …. Nature of the assay: competitive FACS: mFc-LAG3 ECD binding to Raji cells (MHC II). Here is the method:
as §1

Assay [5] deals with T3, human LAG3, full length, stably expressed on cells (human, UniProt P18627 23-525).
T3 construct: whole, on cells; also called CHOK1-human LAG3
T3 sequence (looked up): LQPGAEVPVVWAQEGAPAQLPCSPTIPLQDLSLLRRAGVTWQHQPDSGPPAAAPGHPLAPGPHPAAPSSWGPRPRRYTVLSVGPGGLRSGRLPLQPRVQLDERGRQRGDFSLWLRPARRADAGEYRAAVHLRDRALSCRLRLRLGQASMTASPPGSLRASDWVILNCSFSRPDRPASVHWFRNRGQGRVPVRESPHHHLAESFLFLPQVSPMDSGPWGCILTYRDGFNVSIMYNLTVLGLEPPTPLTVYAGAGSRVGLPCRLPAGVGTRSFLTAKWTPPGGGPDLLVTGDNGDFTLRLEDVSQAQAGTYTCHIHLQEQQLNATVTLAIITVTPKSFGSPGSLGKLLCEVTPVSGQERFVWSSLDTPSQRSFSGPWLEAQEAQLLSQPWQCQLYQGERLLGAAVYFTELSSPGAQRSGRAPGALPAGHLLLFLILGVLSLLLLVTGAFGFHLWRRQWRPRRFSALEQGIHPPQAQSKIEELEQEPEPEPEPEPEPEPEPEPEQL
Nature of the assay: FACS on 293F cells stably expressing human LAG3. The protocol: Briefly the antibodies were incubated with 2×10⁵ target cells at 4° C. for 1 hour. After washing, fluorescence labeled anti-mouse IgG 2nd antibody (Life Technologies) was added and incubated at 4° C. for 1 hour. Geometric median fluorescence intensity (MFI) was detected and EC₅₀ was calculated using GraphPad Prism9.0.
MFI was detected and EC₅₀ was calculated using GraphPad Prism9.0.

B1: hu029.53 (antibody, V domains shown)
VH: QVQLVESGGGLVKPGGSLRLSCAASGFTFSSYAMSWIRQAPGKGLEWVAYVTSGGDYIYYADTVKGRFTISRDDAKNSLYLQMNSLRAEDTAMYYCTRVAYDYEWYFDVWGQGALVTVSS
VL: DIQMTQSPSSVSASVGDRVTITCKASQDVTTAVAWYQQKPGKAPKLLIYSASYRYTGVPSRFSGSGSGTDFTLTISSLQPEDFATYYCQQHDSSPWTFGQGTKLEIK
notes: humanized from 029c
For the molecule B1, in assay [1], the “%Blocking at 2 nM” value is 21.4%, the “%Blocking at 4 nM” value was 31.9% and the “%Blocking at 8 nM” value amounted to 98%. For the same molecule, in assay [2], binding was characterised by a dissociation constant (Kd) of 4.94 nM; the off-rate (koff) – broadly, the first-order rate constant of dissociation – was determined as 0.0217 s⁻¹; the association rate constant (kon) (commonly a measure of how fast the partners come together) stood at 4.38e+06 M⁻¹ s⁻¹.

B2: hu023.05 (antibody, human IgG4, V domains shown)
VH: QVQLVQSGAEVKKPGASVKVSCKASGYTFTESPMNWVRQAPGQGFEWMGIIYTDTGEPTYAEEFKGRVTMTRDTSTSTVYMELSSLRSEDTAVYFCASDYGSILYWYFDVWGQGTLVTVSS
VL: DIQMTQSPSSLSASVGDRVTITCKASQDVSTAVAWYQQKPGKSPKLLIYSASYRYTGVPSRFSGSGSGTDFTFTISSLQPEDFATYYCQQHYNAPPTFGQGTKLEIK
notes: humanized from 023c
As for B2, in assay [3], the Kd (in general, the constant that tells how readily two partners part at equilibrium) was determined as 0.616 nM; the koff worked out at 0.000198 s⁻¹; the on-rate constant (kon) amounted to 321000 M⁻¹ s⁻¹.

B3: hu023.08 (antibody, human IgG4, V domains shown)
VH: QVQLVQSGPEVKKPGASVKVSCKASGYTFTESPMNWVRQAPGQGFEWMGIIYTDTGEPTYAEEFKGRVTMTLDTSTSTVYMELSSLRSEDTAVYFCASDYGSILYWYFDVWGQGTLVTVSS
VL: DIQMTQSPSSLSASVGDRVTITCKASQDVSTAVAWYQQKPGKSPKLLIYSASYRYTGVPSRFSGSGSGTDFTFTISSLQPEDFATYYCQQHYNAPPTFGQGTKLEIK
notes: humanized from 023c
With B3, in assay [3], the Kd amounted to 0.689 nM, the koff was 0.000219 s⁻¹ and the kon turned out to be 318000 M⁻¹ s⁻¹.

B4: hu023.06 (antibody, human IgG4, V domains shown)
VH: QVQLVQSGAEVKKPGASVKVSCKASGYTFTESPMNWVRQAPGQGFEWMGIIYTDTGEPTYAEEFKGRVTMTRDTSTSTVYMELSSLRSEDTAVYFCASDYGSILYWYFDVWGQGTLVTVSS
VL: DIQMTQSPSSLSTSVGDRVTITCKASQDVSTAVAWYQQKPGKSPKLLIYSASYRYTGVPSRFSGSGSGTDFTFTISSVQPEDFATYYCQQHYNAPPTFGQGTKLEIK
notes: humanized from 023c
In assay [3], B4 displayed a Kd of 0.657 nM, a koff of 0.000161 s⁻¹ and a kon of 246000 M⁻¹ s⁻¹.

B5: hu023.14 (antibody, human IgG4, V domains shown)
VH: QIQLVQSGPELKKPGASVKISCKASGYTFTESPMNWVRQAPGQGFEWMGIIYTDTGEPTYAEEFKGRFVFSLDTSVSTAYLQISSLKAEDTAVYFCVSDYGSILYWYFDVWGQGTLVTVSS
VL: DIQMTQSPSSLSASVGDRVTITCKASQDVSTAVAWYQQKPGKSPKLLIYSASYRYTGVPSRFSGSGSGTDFTFTISSLQPEDFATYYCQQHYNAPPTFGQGTKLEIK
notes: humanized from 023c
In assay [3], B5 came in with a Kd of 0.24 nM, an off-rate constant (koff) of 7.72e-05 s⁻¹ and an on-rate constant (kon) of 322000 M⁻¹ s⁻¹.

B6: hu023.12 (antibody, human IgG4, V domains shown)
VH: QVQLVQSGPELKKPGASVKVSCKASGYTFTESPMNWVRQAPGQGFEWMGIIYTDTGEPTYAEEFKGRFVFSLDTSVSTAYLQISSLKAEDTAVYFCVSDYGSILYWYFDVWGQGTLVTVSS
VL: DIQMTQSPSSLSTSVGDRVTITCKASQDVSTAVAWYQQKPGKSPKLLIYSASYRYTGVPSRFSGSGSGTDFTFTISSVQPEDFATYYCQQHYNAPPTFGQGTKLEIK
notes: humanized from 023c
In the case of B6, in assay [3], the Kd came to 0.189 nM, the koff turned out to be 5.58e-05 s⁻¹ and the kon came to 296000 M⁻¹ s⁻¹.

B7: hu029.40 (antibody, V domains shown)
VH: QVQLVESGGGLVKPGGSLRLSCAASGFTFSSYAMSWVRQAPGKRLEWVAYVTSGGDYIYYADTVKGRFTISRDDAKNSLYLQMNSLRAEDTAMYYCTRVAYDYEWYFDVWGQGALVTVSS
VL: DIQMTQSPSSVSTSVGDRVTITCKASQDVTTAVAWYQQKPGKAPKLLIYSASYRYTGVPSRFSGSGSGTDFTFTISSVQPEDFATYYCQQHDSSPWTFGQGTKLEIK
notes: humanized from 029c
As for B7, in assay [1], the “%Blocking at 2 nM” value turned out to be 19.6%, the “%Blocking at 4 nM” value was determined as 43.4% and the “%Blocking at 8 nM” value stood at 99.1%. Also, in assay [2], the dissociation constant Kd was found to be 4.79 nM, the koff came to 0.0224 s⁻¹ and the association rate constant (kon) was 4.68e+06 M⁻¹ s⁻¹.

B8: hu023.09 (antibody, human IgG4, V domains shown)
VH: QVQLVQSGPEVKKPGASVKVSCKASGYTFTESPMNWVRQAPGQGFEWMGIIYTDTGEPTYAEEFKGRVTMTLDTSTSTVYMELSSLRSEDTAVYFCASDYGSILYWYFDVWGQGTLVTVSS
VL: DIQMTQSPSSLSTSVGDRVTITCKASQDVSTAVAWYQQKPGKSPKLLIYSASYRYTGVPSRFSGSGSGTDFTFTISSVQPEDFATYYCQQHYNAPPTFGQGTKLEIK
notes: humanized from 023c
As for B8, in assay [3], the Kd turned out to be 0.704 nM, the koff worked out at 0.000204 s⁻¹ and the kon was determined as 290000 M⁻¹ s⁻¹.

B9: 038c (antibody, human IgG4, V domains shown)
VH: DVQVQESGPGLVKPSQSLSLTCSVTGYSITSGYYWNWIRQFPGNKLEWMGYISYDGSNEYNLSLKNRLSITRDTSKNQFFLKLNSVTTEDTATYYCAREEDGYYGGMDYWGQGTSVTVSS
VL: DIVMTQSHKFMSASVGVRVSITCRASQDVDTAVAWYQQKPGQSPKLLIYWASTRHTGVPDRFTGSGSGTDFTLTISNVQSEDLADYFCQQYSSYPYTFGGGTKLEIK
notes: human IgG4 S228P / kappa chimeric antibody; also called chimeric antibody 038; not shown: human kappa light chain constant region (pcDNA3.4-hIgGk vector)
On to B9, for which, in assay [4], the IC50 (commonly the concentration that gives 50% inhibition) was 5.2 nM and the “TOP blocking (%)” value stood at 98.4%. A half-maximal effect in assay [5] (EC50) was put at 2.3 nM.

Values taken from patent US20250313625A1 (ELPISCIENCE SUZHOU BIOPHARMA, published 2025).
